Test results reported in patent US7179650 (University of Texas, dated 2007).

B1: E2-EPF (yeast two-hybrid) (enzyme, human, UniProt Q16763 1-222, looked up)
chain: MNSNVENLPPHIIRLVYKEVTTLTADPPDGIKVFPNEEDLTDLQVTIEGPEGTPYAGGLFRMKLLLGKDFPASPPKGYFLTKIFHPNVGANGEICVNVLKRDWTAELGIRHVLLTIKCLLIHPNPESALNEEAGRLLLENYEEYAARARLLTEIHGGAGGPSGRAEAGRALASGTEASSTDPGAPGGPGGAEGPMAKKHAGERDKKLAAKKKTDKKRALRRL
notes: not shown: GAL4 fusion domain of the two-hybrid vector
B2: Sentrin-1 with substitution of Ala-Ala for Gly-Gly (yeast two-hybrid) (other)
chain: MSDQEAKPSTEDLGDKKQGEYIKLKVIGQDSSEIHFKVKMTTHLKKLKESYCQRQGVPMNSLRFLFEGQRIADNHTPKELGMEEEDVIEVYQEQTAAHSTV
notes: as for B1
B3: The N-terminal 23 amino acids of sentrin-1 (yeast two-hybrid) (peptide)
chain: MSDQEAKPSTEDLGDKKQGEYIK
notes: Range worked out from the words: the N-terminal 23 amino acids; also called sentrin-1 (1-23); not shown: GAL4 fusion domain of the two-hybrid vector
B4: sentrin-1 (1-70) (yeast two-hybrid) (other)
chain: MSDQEAKPSTEDLGDKKQGEYIKLKVIGQDSSEIHFKVKMTTHLKKLKESYCQRQGVPMNSLRFLFEGQR
notes: also called deletion of the C-terminal 31 amino acids; not shown: GAL4 fusion domain of the two-hybrid vector
B5: UbCH6 (yeast two-hybrid) (enzyme, human, UniProt P51965 1-193, looked up)
chain: MSDDDSRASTSSSSSSSSNQQTEKETNTPKKKESKVSMSKNSKLLSTSAKRIQKELADITLDPPPNCSAGPKGDNIYEWRSTILGPPGSVYEGGVFFLDITFTPEYPFKPPKVTFRTRIYHCNINSQGVICLDILKDNWSPALTISKVLLSICSLLTDCNPADPLVGSIATQYMTNRAEHDRMARQWTKRYAT
notes: as for B1
B6: sentrin-1 (24-101) (yeast two-hybrid) (other)
chain: LKVIGQDSSEIHFKVKMTTHLKKLKESYCQRQGVPMNSLRFLFEGQRIADNHTPKELGMEEEDVIEVYQEQTGGHSTV
notes: also called deletion of the N terminal 23 amino acids; not shown: GAL4 fusion domain of the two-hybrid vector

Experiments:
[1] = target: T1, Gal-4-sentrin-1 (pGBT9-sentrin-1, full-length sentrin-1 fused to the GAL4 DNA-binding domain) (human, UniProt P04386 1-147 (Saccharomyces cerevisiae entry)); assay: yeast two-hybrid
T1 construct: also called wild type sentrin-1; sentrin-1 bait

[2] = target: T2, Full-length human Ubc9 in pGAD424 (GAL4 activation domain fusion) (human, UniProt P04386 768-881; P63279 1-158); assay: yeast two-hybrid
T2 construct: also called human ubiquitin conjugating enzyme

Binder	binding result [1]	binding result [2]
B1	no binding	–
B2	–	no binding
B3	–	no binding
B4	–	no binding
B5	no binding	–
B6	–	binds
